The source of these data is article PMC11178795, “Hydrogen peroxide is required for light-induced stomatal opening across different plant species” (Nature Communications, 2024).

For assay [1], the target named is T1, GST-bZIP30 (Arabidopsis thaliana (Mouse-ear cress), UniProt Q9SIG8).
T1 chain: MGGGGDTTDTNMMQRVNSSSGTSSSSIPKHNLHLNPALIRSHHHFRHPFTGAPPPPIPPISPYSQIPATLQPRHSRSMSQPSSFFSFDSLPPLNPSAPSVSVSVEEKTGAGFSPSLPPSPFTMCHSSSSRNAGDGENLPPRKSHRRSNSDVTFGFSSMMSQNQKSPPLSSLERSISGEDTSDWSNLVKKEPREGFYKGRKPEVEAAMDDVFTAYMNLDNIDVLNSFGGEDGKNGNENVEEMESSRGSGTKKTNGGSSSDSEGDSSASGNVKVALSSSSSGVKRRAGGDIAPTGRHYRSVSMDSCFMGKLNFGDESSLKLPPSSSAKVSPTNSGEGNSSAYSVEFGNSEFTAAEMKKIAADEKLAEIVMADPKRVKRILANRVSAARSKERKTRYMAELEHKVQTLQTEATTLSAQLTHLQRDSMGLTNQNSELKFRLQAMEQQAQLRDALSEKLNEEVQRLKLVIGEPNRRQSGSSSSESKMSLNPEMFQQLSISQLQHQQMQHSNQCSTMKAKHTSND
The assay can be described thus: GST pull-down; binding enhanced by 1 mM H2O2 (oxidation of BZR1, Cys63).

The target in assay [2] is T2, GST-bZIP30 (Arabidopsis thaliana, UniProt Q9SIG8 1-519).
T2 construct: bZIP30 transcription factor, Arabidopsis, AT2G21230; full-length coding region without stop codon; destination vector pDEST15 (N-GST); source: Escherichia coli, purified (glutathione beads); not shown: GST, N-terminal, kept
T2 sequence (looked up): T1 chain
The assay can be described thus: pull-down; 1 μg GST fusion on glutathione beads incubated with 1 µg MBP or MBP fusion; 20 mM Tris-HCl pH 7.5, 100 mM NaCl, 1 mM EDTA; with or without 1 mM H2O2; room temperature; washes with 300 mM NaCl, 0.5% Triton X-100; anti-MBP immunoblot. As to conditions: both partners purified. (In general: A western blot detects proteins with antibodies after separation by electrophoresis.)

Assay [3] concerns the target T3, MBP-bZIP30 (Arabidopsis thaliana, UniProt Q9SIG8 1-519).
T3 construct: bZIP30 transcription factor, Arabidopsis, AT2G21230; full-length coding region without stop codon; destination vector pMAL2CGW (N-MBP); source: Escherichia coli, purified (amylose resin); not shown: MBP, N-terminal, kept
T3 sequence (looked up): T1 chain
The assay is described as above. As to conditions: both partners purified.

B1: MBP-BZR1 (natural protein, Arabidopsis thaliana, UniProt Q8S307 1-336, looked up)
chain: MTSDGATSTSAAAAAAAAAAARRKPSWRERENNRRRERRRRAVAAKIYTGLRAQGDYNLPKHCDNNEVLKALCVEAGWVVEEDGTTYRKGCKPLPGEIAGTSSRVTPYSSQNQSPLSSAFQSPIPSYQVSPSSSSFPSPSRGEPNNNMSSTFFPFLRNGGIPSSLPSLRISNSCPVTPPVSSPTSKNPKPLPNWESIAKQSMAIAKQSMASFNYPFYAVSAPASPTHRHQFHTPATIPECDESDSSTVDSGHWISFQKFAQQQPFSASMVPTSPTFNLVKPAPQQMSPNTAAFQEIGQSSEFKFENSQVKPWEGERIHDVGMEDLELTLGNGKARG
notes: BRASSINAZOLE-RESISTANT1 (BZR1), Arabidopsis, AT1G75080; full-length coding region without stop codon; destination vector pMAL2CGW (N-MBP); source: Escherichia coli, purified (amylose resin); not shown: MBP, N-terminal, kept
Turning to B1, the binding result in assay [1] and in assay [2] was “binds” each time.

B2: GST-BZR1 (natural protein, Arabidopsis thaliana, UniProt Q8S307 1-336, looked up)
chain: B1 chain
notes: BRASSINAZOLE-RESISTANT1 (BZR1), Arabidopsis, AT1G75080; full-length coding region without stop codon; destination vector pDEST15 (N-GST); source: Escherichia coli, purified (glutathione beads); not shown: GST, N-terminal, kept
Turning to B2, in assay [3], the binding result is listed as “binds”.

B3: MBP-KIN10 (enzyme, Arabidopsis thaliana, UniProt Q38997 1-512, looked up)
chain: MDGSGTGSRSGVESILPNYKLGRTLGIGSFGRVKIAEHALTGHKVAIKILNRRKIKNMEMEEKVRREIKILRLFMHPHIIRLYEVIETPTDIYLVMEYVNSGELFDYIVEKGRLQEDEARNFFQQIISGVEYCHRNMVVHRDLKPENLLLDSKCNVKIADFGLSNIMRDGHFLKTSCGSPNYAAPEVISGKLYAGPEVDVWSCGVILYALLCGTLPFDDENIPNLFKKIKGGIYTLPSHLSPGARDLIPRMLVVDPMKRVTIPEIRQHPWFQAHLPRYLAVPPPDTVQQAKKIDEEILQEVINMGFDRNHLIESLRNRTQNDGTVTYYLILDNRFRASSGYLGAEFQETMEGTPRMHPAESVASPVSHRLPGLMEYQGVGLRSQYPVERKWALGLQSRAHPREIMTEVLKALQDLNVCWKKIGHYNMKCRWVPNSSADGMLSNSMHDNNYFGDESSIIENEAAVKSPNVVKFEIQLYKTRDDKYLLDLQRVQGPQFLFLDLCAAFLAQLRVL
notes: KIN10, catalytic subunit of SnRK1, Arabidopsis, AT3G01090; full-length coding region without stop codon; destination vector pMAL2CGW (N-MBP); source: Escherichia coli, purified (amylose resin); not shown: MBP, N-terminal, kept
In the case of B3, in assay [2], the binding result is “binds”.
